From patent US20200149053A1, “MICROORGANISMS PROGRAMMED TO PRODUCE IMMUNE MODULATORS AND ANTI-CANCER THERAPEUTICS IN TUMOR CELLS” (Synlogic Operating Company, Inc., priority 2017, published 2020)

Experiments:
IgG (coating control) [1] = assay: ELISA, IgG coated plate, E. coli extract, anti-V5-HRP, TMB
IgG (coating control) [2] = assay: ELISA, IgG coated plate, E. coli extract (1/2), anti-V5-HRP, TMB
NK cells = conditions: upon treatment; cited from earlier work
Biotinylated IgG = assay: whole cell ELISA, scFv displayed on E. coli Nissle, biotinylated IgG as negative control, streptavidin-HRP, TMB
[3] = biological target: biotinylated-mPD1 (mouse) (UniProt Q02242); assay: whole cell ELISA, scFv displayed on E. coli Nissle, biotinylated mPD1, streptavidin-HRP, TMB
[4] = biological target: T1, recombinant SIRPα (Rndsystems) (mouse, UniProt P97797 32-373); assay: flow cytometry competition on CT26 cells
T1 construct: also called recombinant mSIRPα
T1 sequence (looked up): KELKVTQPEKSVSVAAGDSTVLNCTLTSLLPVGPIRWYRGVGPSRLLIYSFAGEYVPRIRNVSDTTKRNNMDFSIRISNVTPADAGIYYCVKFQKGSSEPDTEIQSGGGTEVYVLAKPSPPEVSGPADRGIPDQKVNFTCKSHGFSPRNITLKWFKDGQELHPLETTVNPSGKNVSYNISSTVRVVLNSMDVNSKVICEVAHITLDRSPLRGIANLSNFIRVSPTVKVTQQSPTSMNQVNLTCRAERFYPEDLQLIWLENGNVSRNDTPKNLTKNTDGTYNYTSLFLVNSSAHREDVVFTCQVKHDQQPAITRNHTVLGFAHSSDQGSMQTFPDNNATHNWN

PD1 on mouse EL4 cells = biological target: T2, PD1 on mouse EL4 cells (Mus musculus, UniProt Q02242); assay: Flow cytometric analysis of anti-PD1-scFv binding to EL4 cells, PDL1 competition
T2 construct: EL4 are a mouse lymphoma cell line which expresses PD1 on its cell surface; endogenous in cells; host or cells: EL4 (mouse lymphoma)
T2 sequence (Q02242 25-288): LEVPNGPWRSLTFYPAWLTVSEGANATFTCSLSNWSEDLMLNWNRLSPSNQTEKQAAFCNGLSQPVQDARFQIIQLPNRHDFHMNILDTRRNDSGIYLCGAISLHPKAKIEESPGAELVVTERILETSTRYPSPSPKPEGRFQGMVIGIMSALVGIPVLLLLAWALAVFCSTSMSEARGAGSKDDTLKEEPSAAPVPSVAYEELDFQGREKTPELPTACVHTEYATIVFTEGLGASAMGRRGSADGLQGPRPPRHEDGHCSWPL
Method: To determine whether anti-PD1-scFv expressed in E. coli binds to surface PD1 on mouse EL4 cells, flow cytometric analysis was performed using EL4 cells. EL4 are a mouse lymphoma cell line which expresses PD1 on its cell surface.
EL4 cells were grown in Dulbecco's Modified Eagle's Medium (DMEM) with 10% FBS. Cells were spun down, supernatant was aspirated, pellet was resuspended in 1 nil D-PBS, transferred into chilled assay tubes (1×10^6 cells), and washed 2-3 times in D-PBS with 0.5% BSA. Cells were resuspended in PBS with 0.5% BSA, to which the purified scFv-V5 and anti-V5-FITC antibody were added and incubated for 1 hour at room temperature. Negative control left out scFv-V5. Cells were resuspended in 0.5 ml PBS and analyzed on a flow cytometer.
EL4 are a mouse lymphoma cell line which expresses PD1 on its cell surface.
EL4 cells were grown in Dulbecco's Modified Eagle's Medium (DMEM) with 10% FBS and 1% Penicillin-Streptomycin Cells were spun down, supernatant was aspirated, pellet was resuspended in 1 ml D-PBS, transferred into chilled assay tubes (1×10^6 cells), and washed 3 times in D-PBS. Cells were resuspended in D-PBS with 0.5% BSA, to which the purified scFv-V5 and anti-V5-FITC antibody were added and incubated for 1 hour at room temperature. Negative control left out secreted J43-scFv-V5. Cells were then resuspended in 0.5 ml PBS and analyzed on a flow cytometer. Results are shown in (FIG. 64).
Next, a competition assay was conducted to determine whether PDL1 could inhibit the binding of the anti-PD1-scFv secreted by the genetically engineered bacteria from binding to murine PD1. EL4 cells were grown and flow cytometry protocol was conducted essentially as described above except that PDL1 was added at various concentrations ([…]) during the incubation of the secreted anti-PD1-scFv-V5. Rat-IgG was used as a negative control of secreted scFv.

PD1 = biological target: T3, PD1 (Mus musculus, UniProt Q02242); assay: ELISA binding assay of bacterial extracts (J43-scFv); conditions: α-V5-HRP
T3 construct: purchased Rndsystems
T3 sequence (Q02242 25-288): T2 sequence (Q02242 25-288)
Method: E. coli comprising either tet-inducible J43-Anti-PD1-scFv-V5 or wild type controls were grown overnight in LB medium. […] Same amount of tetracycline was added to wild type control cultures.

anti-mCD40L antibody = assay: CD40 ELISA binding assay, plate coated with anti-mCD40L antibody; conditions: clarified supernatant
Method: (§1) Cultures were diluted 1:100 in LB and grown shaking (200 rpm) to an optical density of 0.8, at which time the cultures were cooled down to room temperature and anhydrous tetracycline (ATC) was added to cultures at a concentration of 100 ng/mL, to induce expression of mCD40L1 and mCD40L2.
(§2) After 18 hours of induction, cells were spun down, and supernatant was collected. To generate cell free medium, the clarified supernatant was further filtered through a 0.22 micron filter to remove any remaining bacteria and placed on ice.

mCD40 = biological target: T4, mCD40 (Mus musculus, UniProt P27512); assay: CD40 ELISA binding assay, plate coated with mCD40; conditions: clarified supernatant; for CD40 ELISA signal, coating material IgG / CD40 ELISA signal, coating material PBS: control coating
T4 sequence (P27512 20-289): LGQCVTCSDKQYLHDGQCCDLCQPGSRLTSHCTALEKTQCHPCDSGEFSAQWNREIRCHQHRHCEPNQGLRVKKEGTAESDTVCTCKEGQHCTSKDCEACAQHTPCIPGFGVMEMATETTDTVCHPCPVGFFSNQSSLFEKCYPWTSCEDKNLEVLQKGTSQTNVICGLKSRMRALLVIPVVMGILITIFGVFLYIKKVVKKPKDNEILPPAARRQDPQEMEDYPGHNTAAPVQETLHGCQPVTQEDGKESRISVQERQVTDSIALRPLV
Method: as §1, §2

[5] = biological target: T5, mouseCD47 (recombinant) (mouse) (UniProt Q61735); assay: ELISA, mCD47 coated plate, bacterial supernatant
T5 sequence (looked up): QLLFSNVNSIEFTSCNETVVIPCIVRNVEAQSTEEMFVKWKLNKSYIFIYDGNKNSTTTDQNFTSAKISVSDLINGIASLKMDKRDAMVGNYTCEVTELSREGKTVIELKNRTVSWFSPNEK

IgG (coating control) [6] = assay: ELISA, IgG coated plate, bacterial supernatant
[7] = biological target: T6, secreted mCD40L1 (47-260) (mouse, UniProt P27548 47-260); assay: ELISA, mCD40 coated plate
T6 construct: range 47-260; also called Secreted CD40-L1; SYN3366 supernatant
T6 sequence (looked up): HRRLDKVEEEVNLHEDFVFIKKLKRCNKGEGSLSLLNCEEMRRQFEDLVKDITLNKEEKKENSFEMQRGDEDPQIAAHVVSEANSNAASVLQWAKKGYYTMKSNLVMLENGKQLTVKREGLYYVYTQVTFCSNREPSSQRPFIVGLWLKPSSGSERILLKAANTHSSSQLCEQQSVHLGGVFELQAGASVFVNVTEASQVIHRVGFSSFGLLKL

For J43-Anti-PD1-scFv-V5, the ELISA signal at 450 nm (IgG (coating control) [1]) was 0.13 and the ELISA signal at 450 nm (IgG (coating control) [2]) was 0.11.

For “recombinant human IL-15: recombinant human IL-15 of a first-in-human clinical trial”, the “expansion of NK cells” value (NK cells) is given as 10 fold and the “proliferation of γδT cells and CD8+ T cells” value (NK cells) is given as “significantly increased”.

“LppOmpA-FLAG-J43scFv-V5-HIS displayed on E. coli Nissle SYN2798” showed an OD450 (Biotinylated IgG) of 0.133 and an OD450 [3] of 0.421.

B1: CD47 on mouse CT26 cells (receptor, UniProt Q61735 19-303, looked up)
chain: QLLFSNVNSIEFTSCNETVVIPCIVRNVEAQSTEEMFVKWKLNKSYIFIYDGNKNSTTTDQNFTSAKISVSDLINGIASLKMDKRDAMVGNYTCEVTELSREGKTVIELKNRTVSWFSPNEKILIVIFPILAILLFWGKFGILTLKYKSSHTNKRIILLLVAGLVLTVIVVVGAILLIPGEKPVKNASGLGLIVISTGILILLQYNVFMTAFGMTSFTIAILITQVLGYVLALVGLCLCIMACEPVHGPLLISGLGIIALAELLGLVYMKFVASNQRTIQPPRNR
notes: whole, on cells; also called murine CD47 on CT26 cells
B1: binds [4].

B2: J43-scFv-V5: anti-PD1 single-chain variable fragment based on J43 monoclonal antibody, V5 tagged, expressed in E. coli (protein)
scFv: MQLEVRLLESGGGLVKPEGSLKLSCVASGFTFSDYFMSWVRQAPGKGLEWVAHIYTKSYNYATYYSGSVKGRFTISRDDSRSMVYLQMNNLRTEDTATYYCTRDGSGYPSLDFWGQGTQVTVSSGGGGSGGGGSGGGGSYELTQPPSASVNVGETVKITCSGDQLPKYFADWFHQRSDQTILQVIYDDNKRPSGIPERISGSSSGTTATLTIRDVRAEDEGDYYCFSGYVDSDSKLYVFGSGTQLTVLGKGELNSKLEGKPIPNPLLGLDSTRTGHHHHHH
For B2, the “PDL1 competition against binding to mPD1 on EL4 cells” value (PD1 on mouse EL4 cells; PDL1 added at various concentrations) was “PDL1 competed in a dose dependent manner”, the “binding to surface PD1 on EL4 cells (flow cytometry)” value (PD1 on mouse EL4 cells; purified scFv, anti-V5-FITC) was “population shift is observed” and the “staining of EL4 cells with different amounts of secreted scFv” value (PD1 on mouse EL4 cells; secreted scFv, increasing amounts) was “dose-dependent staining of the EL4 cells was observed”. The “binding to PD1 on EL4 cells (flow cytometry)” value (PD1 on mouse EL4 cells; secreted scFv, anti-V5-FITC) was “population shift is observed”, the “Signal intensity at 450 nm, IgG coating” value (PD1; bacterial extract (1/2)) was 0.11 and the “Signal intensity at 450 nm, PBS coating” value (PD1; bacterial extract (1/2)) was 0.10. For the same molecule, the “Signal intensity at 450 nm, mPD1 coating” value (PD1; bacterial extract (1/2)) was 0.90, the “Signal intensity at 450 nm, IgG coating” value (PD1; bacterial extract) was 0.13 and the “Signal intensity at 450 nm, PBS coating” value (PD1; bacterial extract) was 0.11. For the same molecule, the “Signal intensity at 450 nm, mPD1 coating” value (PD1; bacterial extract) was 1.41.

B3: Secreted CD40-L2: mCD40L2 (112-260), soluble form of mCD40L, secreted by SYN3367 (protein)
chain: MQRGDEDPQIAAHVVSEANSNAASVLQWAKKGYYTMKSNLVMLENGKQLTVKREGLYYVYTQVTFCSNREPSSQRPFIVGLWLKPSSGSERILLKAANTHSSSQLCEQQSVHLGGVFELQAGASVFVNVTEASQVIHRVGFSSFGLLKL
modifications: left off: small tags and cut ends
With B3 the “CD40 ELISA signal, coating material Anti-mCD40L” value (anti-mCD40L antibody) was 0.825, the “CD40 ELISA signal, coating material mCD40” value (mCD40) was 0.639 and the “CD40 ELISA signal, coating material IgG” value (mCD40) was 0.052. For the same molecule, the “CD40 ELISA signal, coating material PBS” value (mCD40) was 0.05.

B4: secreted anti-mCD47 scFv (scFv, from a related filing)
scFv: QVKLLQSGAALVKPGASVKMSCQASGYSFTDYWVTWVKQSHGQSLEWIGEIYPSNTVTNFNDNFKGKATLTVDKSTSTAYMELSRLTSEDSAIYYCTRIGNSGYRVGWFIYWGQGTLVTVLSGGGGSGGGGSGGGGSDTVLTQSPALAVSPGERVTISCKASESVSSHMHWYQQKPGQQPKLLIYKASNLASGVPARFSGSGSGTDFTLTIDPVEADDTATYFCQQGWNGPFTFGAGTRLELKRADAAGSGELGGSGKPIPNPLLGLDSTGSGHHHHHH
For B4, the ELISA signal [5] was 0.527 and the ELISA signal (IgG (coating control) [6]) was 0.067.

B5: Secreted CD40-L1: mCD40L1 (47-260), extracellular portion of mCD40L, secreted by SYN3366 (protein)
chain: T6 sequence (looked up)
modifications: left off: small tags and cut ends
With B5 the “CD40 ELISA signal, coating material Anti-mCD40L” value (anti-mCD40L antibody) was 0.394, the “CD40 ELISA signal, coating material mCD40” value (mCD40) was 0.231 and the “CD40 ELISA signal, coating material IgG” value (mCD40) was 0.052. The “CD40 ELISA signal, coating material PBS” value (mCD40) was 0.049.

B6: mCD40 (receptor, mouse, UniProt P27512 24-193, looked up)
chain: VTCSDKQYLHDGQCCDLCQPGSRLTSHCTALEKTQCHPCDSGEFSAQWNREIRCHQHRHCEPNQGLRVKKEGTAESDTVCTCKEGQHCTSKDCEACAQHTPCIPGFGVMEMATETTDTVCHPCPVGFFSNQSSLFEKCYPWTSCEDKNLEVLQKGTSQTNVICGLKSRMR
B6: binds [7].
